Data published in patent publication US20220267441A1 (VOR BIOPHARMA, published 2022).
Like-named read-outs stand apart in the source and are kept apart here.

What was measured:
[1] = molecular target: T1, cynomolgus CD45 on live cells (primary cynomolgus PBMCs) (cynomolgus monkey); assay: flow cytometry on cynomolgus PBMCs, overnight 37 C, AF488 anti-human IgG
T1 construct: Endogenous CD45 on PBMCs; also called cyno CD45; Cyno PBMC
T1 chain: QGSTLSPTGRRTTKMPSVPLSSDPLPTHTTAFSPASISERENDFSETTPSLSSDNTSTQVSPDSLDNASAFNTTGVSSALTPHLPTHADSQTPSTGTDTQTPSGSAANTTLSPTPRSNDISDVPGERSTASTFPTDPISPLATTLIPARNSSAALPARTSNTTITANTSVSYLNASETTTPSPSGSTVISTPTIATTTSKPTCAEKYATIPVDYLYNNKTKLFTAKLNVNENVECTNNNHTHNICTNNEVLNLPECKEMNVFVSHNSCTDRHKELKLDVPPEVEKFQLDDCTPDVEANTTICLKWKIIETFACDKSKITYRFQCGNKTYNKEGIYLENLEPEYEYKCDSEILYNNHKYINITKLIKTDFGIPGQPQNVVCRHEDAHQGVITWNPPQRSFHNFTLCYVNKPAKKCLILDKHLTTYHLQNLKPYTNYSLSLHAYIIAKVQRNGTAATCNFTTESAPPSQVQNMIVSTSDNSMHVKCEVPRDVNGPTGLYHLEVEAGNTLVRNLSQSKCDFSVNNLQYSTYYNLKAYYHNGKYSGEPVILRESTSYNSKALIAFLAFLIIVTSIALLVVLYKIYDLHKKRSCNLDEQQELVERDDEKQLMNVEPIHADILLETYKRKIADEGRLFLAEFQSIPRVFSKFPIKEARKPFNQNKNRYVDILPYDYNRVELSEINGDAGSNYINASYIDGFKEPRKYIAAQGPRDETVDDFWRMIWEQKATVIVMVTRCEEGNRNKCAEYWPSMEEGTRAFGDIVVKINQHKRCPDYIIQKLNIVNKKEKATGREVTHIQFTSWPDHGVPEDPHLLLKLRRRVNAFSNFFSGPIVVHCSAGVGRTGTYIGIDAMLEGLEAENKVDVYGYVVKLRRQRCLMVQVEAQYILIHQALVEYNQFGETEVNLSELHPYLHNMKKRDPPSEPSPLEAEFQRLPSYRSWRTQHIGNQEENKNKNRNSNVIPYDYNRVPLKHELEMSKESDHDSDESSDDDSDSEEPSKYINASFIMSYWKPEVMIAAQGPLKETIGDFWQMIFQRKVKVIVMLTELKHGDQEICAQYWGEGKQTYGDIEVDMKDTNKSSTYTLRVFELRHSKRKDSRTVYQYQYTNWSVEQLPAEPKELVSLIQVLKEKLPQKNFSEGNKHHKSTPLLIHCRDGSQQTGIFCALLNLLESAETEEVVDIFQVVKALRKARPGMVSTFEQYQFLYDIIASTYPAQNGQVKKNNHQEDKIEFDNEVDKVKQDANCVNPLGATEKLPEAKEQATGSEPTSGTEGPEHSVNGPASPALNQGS

[2] = molecular target: T2, human CD45 on live cells (REH-1 cells, primary human PBMCs) (human, UniProt P08575 26-1306); assay: flow cytometry on human PBMCs, overnight 37 C, AF488 anti-human IgG
T2 construct: Endogenous CD45
T2 sequence: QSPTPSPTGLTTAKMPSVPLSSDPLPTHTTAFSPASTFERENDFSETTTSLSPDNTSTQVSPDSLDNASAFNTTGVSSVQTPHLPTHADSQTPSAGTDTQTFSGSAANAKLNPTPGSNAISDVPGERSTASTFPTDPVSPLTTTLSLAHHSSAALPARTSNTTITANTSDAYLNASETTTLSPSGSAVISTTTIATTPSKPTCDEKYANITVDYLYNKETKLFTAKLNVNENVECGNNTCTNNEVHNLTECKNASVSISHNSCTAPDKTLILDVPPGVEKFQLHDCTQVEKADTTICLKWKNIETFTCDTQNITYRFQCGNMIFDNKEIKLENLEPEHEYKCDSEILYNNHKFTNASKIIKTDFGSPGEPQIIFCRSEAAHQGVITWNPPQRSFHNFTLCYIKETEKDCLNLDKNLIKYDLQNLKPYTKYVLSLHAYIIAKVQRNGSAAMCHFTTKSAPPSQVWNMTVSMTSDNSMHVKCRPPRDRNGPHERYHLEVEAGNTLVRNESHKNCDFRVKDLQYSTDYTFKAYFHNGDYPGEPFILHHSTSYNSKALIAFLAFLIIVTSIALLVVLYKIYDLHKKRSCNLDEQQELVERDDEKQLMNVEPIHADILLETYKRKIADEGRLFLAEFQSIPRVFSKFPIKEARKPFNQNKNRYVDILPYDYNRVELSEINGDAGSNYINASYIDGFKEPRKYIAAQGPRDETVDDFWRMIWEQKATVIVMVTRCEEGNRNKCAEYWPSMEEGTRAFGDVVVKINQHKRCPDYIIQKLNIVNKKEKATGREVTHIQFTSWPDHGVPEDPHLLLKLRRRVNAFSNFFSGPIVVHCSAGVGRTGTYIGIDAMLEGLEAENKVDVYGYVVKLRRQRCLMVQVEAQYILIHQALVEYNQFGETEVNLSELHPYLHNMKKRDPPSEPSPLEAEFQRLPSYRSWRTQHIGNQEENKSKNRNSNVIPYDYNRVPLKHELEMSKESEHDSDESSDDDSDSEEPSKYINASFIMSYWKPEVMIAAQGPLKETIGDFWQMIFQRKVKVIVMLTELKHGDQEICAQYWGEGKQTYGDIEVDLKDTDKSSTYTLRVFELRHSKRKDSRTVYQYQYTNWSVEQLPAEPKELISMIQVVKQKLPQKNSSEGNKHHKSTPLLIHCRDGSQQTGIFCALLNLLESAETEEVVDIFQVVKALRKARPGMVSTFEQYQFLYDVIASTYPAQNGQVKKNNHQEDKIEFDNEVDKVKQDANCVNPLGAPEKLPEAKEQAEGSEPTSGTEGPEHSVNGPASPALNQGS

[3] = molecular target: T2, human CD45 on live cells (REH-1 cells, …); assay: as above; remark: listed apart in the source
[4] = molecular target: T3, purified human CD45 ectodomain (human CD45RABC antigen) (human, UniProt P08575 26-577); assay: BLI (Octet Red96), antibody on anti-human Fc sensor, 100 nM human CD45 ectodomain, 1:1 fit
T3 construct: also called hCD45
T3 sequence: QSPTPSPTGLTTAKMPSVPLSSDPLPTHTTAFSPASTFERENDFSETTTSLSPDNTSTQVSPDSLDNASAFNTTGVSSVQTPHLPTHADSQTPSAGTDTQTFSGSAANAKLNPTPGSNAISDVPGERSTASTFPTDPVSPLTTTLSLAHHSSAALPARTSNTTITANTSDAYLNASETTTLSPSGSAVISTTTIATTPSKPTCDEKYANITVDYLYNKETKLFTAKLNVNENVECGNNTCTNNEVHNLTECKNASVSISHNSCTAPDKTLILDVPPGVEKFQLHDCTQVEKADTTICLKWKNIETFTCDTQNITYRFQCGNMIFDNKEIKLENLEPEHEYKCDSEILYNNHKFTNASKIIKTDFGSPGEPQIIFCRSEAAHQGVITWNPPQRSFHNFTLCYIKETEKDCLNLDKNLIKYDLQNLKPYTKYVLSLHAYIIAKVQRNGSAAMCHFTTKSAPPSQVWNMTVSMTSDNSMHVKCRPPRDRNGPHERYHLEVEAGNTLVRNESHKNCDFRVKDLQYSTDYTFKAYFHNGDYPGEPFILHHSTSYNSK

[5] = molecular target: T3, purified human CD45 ectodomain (human …); assay: BLI (Octet Red96), Table 11; the sentence does not name the species of CD45
[6] = molecular target: T1, cynomolgus CD45 on live cells (primary …); assay: flow cytometry on PBMCs; cyno EC50 against human EC50
[7] = molecular target: T1, cynomolgus CD45 on live cells (primary …); assay: flow cytometry on cynomolgus PBMCs, overnight 37 C, AF488 anti-human IgG
[8] = molecular target: T1, cynomolgus CD45 on live cells (primary …); assay: flow cytometry on PBMCs; cyno EC50 against human EC50

B1: Antibody C (AbC) (antibody, IgG1, V domains shown)
VH: EVQLVESGGGLVQPGGSLRLSCAASGFTFNNYWMTWVRQAPGKGLEWVSSISSSGGSIYYPDSVKDRFTISRDNAKNSLYLQMNSLRAEDMAVYYCARLYYYDGGGDAWGQGTLVTVSS
VL: GIQMTQSPSSLSASVGDRVTITCKASQDINKYLDWYQQKPGKAPKLLIYNTNNLHTGIPSRFSGSGSGTDYTLTISSLQPEDFATYYCLQHISRWTFGGGTKVEIK
notes: also called humanized clone AbC
EC50 [1]: 1.34 nM
EC50 [2]: 0.64 nM
EC50 [3]: 0.51 nM
Kd [4]: 2.93 nM
koff [4]: 0.000149 s⁻¹
kon [4]: 50800 M⁻¹ s⁻¹
fold improved affinity over the parent clone C [5]: > 4 fold
Fold Cyno v/s Human (EC50) [6]: 2.1 fold
EC50 [7]: 0.88 nM
Fold Cyno vs Human (EC50) [8]: 1.7 fold
